Drawing on patent US20140087995A1 (published 2014), this text covers IC50 for 7 molecules.

Numbered stars: 1 amine (or outer) side, 2 acyl side, 3 side chain; on linkers, the order of the positions; unused ones are H or OH. Bridge positions count the residues as written; N and C are the ends. Side chains are listed from the residue outwards. Ends that are not written are not given here. * marks the point of attachment. C20 diacid = O=C(O)CCCCCCCCCCCCCCCCCCC(=O)*; γGlu = O=C(O)[C@H](CCC(=O)[*:2])N[*:1]; AEEA = NCCOCCOCC(=O)O

To fix the notation:
T1: human calcitonin receptor (human, UniProt P30988 25-474)
T1 construct: whole, on cells; Used as cell membranes prepared from the transfected BHK cells (Assay VII), not as intact cells; also called hCTR; hCT
T1 sequence (looked up): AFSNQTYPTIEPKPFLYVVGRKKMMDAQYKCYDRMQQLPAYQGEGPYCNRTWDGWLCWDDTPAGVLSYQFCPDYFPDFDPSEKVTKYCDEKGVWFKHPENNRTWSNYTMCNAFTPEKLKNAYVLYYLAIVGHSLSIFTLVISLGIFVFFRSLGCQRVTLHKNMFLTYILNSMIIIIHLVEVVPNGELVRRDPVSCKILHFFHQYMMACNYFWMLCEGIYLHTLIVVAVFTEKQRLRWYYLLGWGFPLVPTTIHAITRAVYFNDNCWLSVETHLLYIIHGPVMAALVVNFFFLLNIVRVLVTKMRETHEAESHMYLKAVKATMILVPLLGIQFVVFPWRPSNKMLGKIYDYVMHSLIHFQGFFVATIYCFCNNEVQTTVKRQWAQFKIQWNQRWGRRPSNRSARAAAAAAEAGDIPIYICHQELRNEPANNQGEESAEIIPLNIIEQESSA

B1: N^α1-[(4S)-4-carboxy-4-(19-carboxynonadecanoylamino)butanoyl]-[Glu14,Arg17,Pro21,Pro25,Pro28,Pro29]-h-amylin (peptide)
peptide: {C20 diacid-γGlu}-KCNTATCATQRLAEFLRHSSPNFGPILPPTNVGSNTY-NH2
modifications: disulfide 2-7
SMILES: CC[C@H](C)[C@H](NC(=O)[C@@H]1CCCN1C(=O)CNC(=O)[C@H](Cc1ccccc1)NC(=O)[C@H](CC(N)=O)NC(=O)[C@@H]1CCCN1C(=O)[C@H](CO)NC(=O)[C@H](CO)NC(=O)[C@H](Cc1c[nH]cn1)NC(=O)[C@H](CCCNC(=N)N)NC(=O)[C@H](CC(C)C)NC(=O)[C@H](Cc1ccccc1)NC(=O)[C@H](CCC(=O)O)NC(=O)[C@H](C)NC(=O)[C@H](CC(C)C)NC(=O)[C@H](CCCNC(=N)N)NC(=O)[C@H](CCC(N)=O)NC(=O)[C@@H](NC(=O)[C@H](C)NC(=O)[C@@H]1CSSC[C@H](NC(=O)[C@H](CCCCN)NC(=O)CC[C@H](NC(=O)CCCCCCCCCCCCCCCCCCC(=O)O)C(=O)O)C(=O)N[C@@H](CC(N)=O)C(=O)N[C@@H]([C@@H](C)O)C(=O)N[C@@H](C)C(=O)N[C@@H]([C@@H](C)O)C(=O)N1)[C@@H](C)O)C(=O)N[C@@H](CC(C)C)C(=O)N1CCC[C@H]1C(=O)N1CCC[C@H]1C(=O)N[C@H](C(=O)N[C@@H](CC(N)=O)C(=O)N[C@H](C(=O)NCC(=O)N[C@@H](CO)C(=O)N[C@@H](CC(N)=O)C(=O)N[C@H](C(=O)N[C@@H](Cc1ccc(O)cc1)C(N)=O)[C@@H](C)O)C(C)C)[C@@H](C)O
notes: also called compound 6
B2: N^ε1-[2-[2-[2-(19-carboxynonadecanoylamino)ethoxy]ethoxy]acetyl]-[Arg17,Pro21,Pro27]-h-amylin (peptide)
peptide: K([AEEA-C20 diacid])CNTATCATQRLANFLRHSSPNFGAIPSSTNVGSNTY-NH2
modifications: disulfide 2-7; N-terminus assumed
SMILES: CC[C@H](C)[C@H](NC(=O)[C@H](C)NC(=O)CNC(=O)[C@H](Cc1ccccc1)NC(=O)[C@H](CC(N)=O)NC(=O)[C@@H]1CCCN1C(=O)[C@H](CO)NC(=O)[C@H](CO)NC(=O)[C@H](Cc1c[nH]cn1)NC(=O)[C@H](CCCNC(=N)N)NC(=O)[C@H](CC(C)C)NC(=O)[C@H](Cc1ccccc1)NC(=O)[C@H](CC(N)=O)NC(=O)[C@H](C)NC(=O)[C@H](CC(C)C)NC(=O)[C@H](CCCNC(=N)N)NC(=O)[C@H](CCC(N)=O)NC(=O)[C@@H](NC(=O)[C@H](C)NC(=O)[C@@H]1CSSC[C@H](NC(=O)[C@@H](N)CCCCNC(=O)COCCOCCNC(=O)CCCCCCCCCCCCCCCCCCC(=O)O)C(=O)N[C@@H](CC(N)=O)C(=O)N[C@@H]([C@@H](C)O)C(=O)N[C@@H](C)C(=O)N[C@@H]([C@@H](C)O)C(=O)N1)[C@@H](C)O)C(=O)N1CCC[C@H]1C(=O)N[C@@H](CO)C(=O)N[C@@H](CO)C(=O)N[C@H](C(=O)N[C@@H](CC(N)=O)C(=O)N[C@H](C(=O)NCC(=O)N[C@@H](CO)C(=O)N[C@@H](CC(N)=O)C(=O)N[C@H](C(=O)N[C@@H](Cc1ccc(O)cc1)C(N)=O)[C@@H](C)O)C(C)C)[C@@H](C)O
notes: also called compound 43
B3: N^ε1-[(4S)-4-carboxy-4-[[(4S)-4-carboxy-4-(19-carboxynonadecanoylamino)butanoyl]amino]butanoyl]-[Asp14,Arg17,Pro22,Pro26,Asp35]-h-amylin (peptide)
peptide: K([γGlu-γGlu-C20 diacid])CNTATCATQRLADFLRHSSNPFGAPLSSTNVGSDTY-NH2
modifications: disulfide 2-7; N-terminus assumed
SMILES: CC(C)C[C@H](NC(=O)[C@H](CCCNC(=N)N)NC(=O)[C@H](CCC(N)=O)NC(=O)[C@@H](NC(=O)[C@H](C)NC(=O)[C@@H]1CSSC[C@H](NC(=O)[C@@H](N)CCCCNC(=O)CC[C@H](NC(=O)CC[C@H](NC(=O)CCCCCCCCCCCCCCCCCCC(=O)O)C(=O)O)C(=O)O)C(=O)N[C@@H](CC(N)=O)C(=O)N[C@@H]([C@@H](C)O)C(=O)N[C@@H](C)C(=O)N[C@@H]([C@@H](C)O)C(=O)N1)[C@@H](C)O)C(=O)N[C@@H](C)C(=O)N[C@@H](CC(=O)O)C(=O)N[C@@H](Cc1ccccc1)C(=O)N[C@@H](CC(C)C)C(=O)N[C@@H](CCCNC(=N)N)C(=O)N[C@@H](Cc1c[nH]cn1)C(=O)N[C@@H](CO)C(=O)N[C@@H](CO)C(=O)N[C@@H](CC(N)=O)C(=O)N1CCC[C@H]1C(=O)N[C@@H](Cc1ccccc1)C(=O)NCC(=O)N[C@@H](C)C(=O)N1CCC[C@H]1C(=O)N[C@@H](CC(C)C)C(=O)N[C@@H](CO)C(=O)N[C@@H](CO)C(=O)N[C@H](C(=O)N[C@@H](CC(N)=O)C(=O)N[C@H](C(=O)NCC(=O)N[C@@H](CO)C(=O)N[C@@H](CC(=O)O)C(=O)N[C@H](C(=O)N[C@@H](Cc1ccc(O)cc1)C(N)=O)[C@@H](C)O)C(C)C)[C@@H](C)O
notes: also called compound 3
B4: N{Alpha-1}-[(4S)-4-carboxy-4-(19-carboxynonadecanoylamino)butanoyl]-[Glu14,Arg17,Pro21,Pro27,Lys34]-h-amylin (peptide)
peptide: {C20 diacid-γGlu}-KCNTATCATQRLAEFLRHSSPNFGAIPSSTNVGKNTY-NH2
modifications: disulfide 2-7
SMILES: CC[C@H](C)[C@H](NC(=O)[C@H](C)NC(=O)CNC(=O)[C@H](Cc1ccccc1)NC(=O)[C@H](CC(N)=O)NC(=O)[C@@H]1CCCN1C(=O)[C@H](CO)NC(=O)[C@H](CO)NC(=O)[C@H](Cc1c[nH]cn1)NC(=O)[C@H](CCCNC(=N)N)NC(=O)[C@H](CC(C)C)NC(=O)[C@H](Cc1ccccc1)NC(=O)[C@H](CCC(=O)O)NC(=O)[C@H](C)NC(=O)[C@H](CC(C)C)NC(=O)[C@H](CCCNC(=N)N)NC(=O)[C@H](CCC(N)=O)NC(=O)[C@@H](NC(=O)[C@H](C)NC(=O)[C@@H]1CSSC[C@H](NC(=O)[C@H](CCCCN)NC(=O)CC[C@H](NC(=O)CCCCCCCCCCCCCCCCCCC(=O)O)C(=O)O)C(=O)N[C@@H](CC(N)=O)C(=O)N[C@@H]([C@@H](C)O)C(=O)N[C@@H](C)C(=O)N[C@@H]([C@@H](C)O)C(=O)N1)[C@@H](C)O)C(=O)N1CCC[C@H]1C(=O)N[C@@H](CO)C(=O)N[C@@H](CO)C(=O)N[C@H](C(=O)N[C@@H](CC(N)=O)C(=O)N[C@H](C(=O)NCC(=O)N[C@@H](CCCCN)C(=O)N[C@@H](CC(N)=O)C(=O)N[C@H](C(=O)N[C@@H](Cc1ccc(O)cc1)C(N)=O)[C@@H](C)O)C(C)C)[C@@H](C)O
notes: also called compound 36
B5: N^ε-[(4S)-4-carboxy-4-(19-carboxynonadecanoylamino)butanoyl]Lys[Arg1,Arg17,Pro21,Pro27,His35]-h-amylin (peptide)
peptide: K([γGlu-C20 diacid])RCNTATCATQRLANFLRHSSPNFGAIPSSTNVGSHTY-NH2
modifications: disulfide 3-8; N-terminus assumed
SMILES: CC[C@H](C)[C@H](NC(=O)[C@H](C)NC(=O)CNC(=O)[C@H](Cc1ccccc1)NC(=O)[C@H](CC(N)=O)NC(=O)[C@@H]1CCCN1C(=O)[C@H](CO)NC(=O)[C@H](CO)NC(=O)[C@H](Cc1c[nH]cn1)NC(=O)[C@H](CCCNC(=N)N)NC(=O)[C@H](CC(C)C)NC(=O)[C@H](Cc1ccccc1)NC(=O)[C@H](CC(N)=O)NC(=O)[C@H](C)NC(=O)[C@H](CC(C)C)NC(=O)[C@H](CCCNC(=N)N)NC(=O)[C@H](CCC(N)=O)NC(=O)[C@@H](NC(=O)[C@H](C)NC(=O)[C@@H]1CSSC[C@H](NC(=O)[C@H](CCCNC(=N)N)NC(=O)[C@@H](N)CCCCNC(=O)CC[C@H](NC(=O)CCCCCCCCCCCCCCCCCCC(=O)O)C(=O)O)C(=O)N[C@@H](CC(N)=O)C(=O)N[C@@H]([C@@H](C)O)C(=O)N[C@@H](C)C(=O)N[C@@H]([C@@H](C)O)C(=O)N1)[C@@H](C)O)C(=O)N1CCC[C@H]1C(=O)N[C@@H](CO)C(=O)N[C@@H](CO)C(=O)N[C@H](C(=O)N[C@@H](CC(N)=O)C(=O)N[C@H](C(=O)NCC(=O)N[C@@H](CO)C(=O)N[C@@H](Cc1c[nH]cn1)C(=O)N[C@H](C(=O)N[C@@H](Cc1ccc(O)cc1)C(N)=O)[C@@H](C)O)C(C)C)[C@@H](C)O
notes: also called compound 44
B6: N^α1-[2-[2-[2-[[2-[2-[2-[[(4S)-4-carboxy-4-(19-carboxynonadecanoylamino)butanoyl]amino]ethoxy]ethoxy]acetyl]amino]ethoxy]ethoxy]acetyl]-[Arg17,Pro21,Pro27]-h-am … (peptide)
peptide: KCNTATCATQRLANFLRHSSPNFGAIPSSTNVGSNTY
modifications: C20 diacid-gGlu-2xOEG on the alpha amino group of the N-terminal Lys1; disulfide Cys2-Cys7; C-terminal amide
notes: also called compound 24
B7: N^ε1-[2-[2-[2-[[(4S)-4-carboxy-4-(19-carboxynonadecanoylamino)butanoyl]amino]ethoxy]ethoxy]acetyl]-[Arg17,Pro21,Pro27]-h-amylin (peptide)
peptide: K([AEEA-γGlu-C20 diacid])CNTATCATQRLANFLRHSSPNFGAIPSSTNVGSNTY-NH2
modifications: disulfide 2-7; N-terminus assumed
SMILES: CC[C@H](C)[C@H](NC(=O)[C@H](C)NC(=O)CNC(=O)[C@H](Cc1ccccc1)NC(=O)[C@H](CC(N)=O)NC(=O)[C@@H]1CCCN1C(=O)[C@H](CO)NC(=O)[C@H](CO)NC(=O)[C@H](Cc1c[nH]cn1)NC(=O)[C@H](CCCNC(=N)N)NC(=O)[C@H](CC(C)C)NC(=O)[C@H](Cc1ccccc1)NC(=O)[C@H](CC(N)=O)NC(=O)[C@H](C)NC(=O)[C@H](CC(C)C)NC(=O)[C@H](CCCNC(=N)N)NC(=O)[C@H](CCC(N)=O)NC(=O)[C@@H](NC(=O)[C@H](C)NC(=O)[C@@H]1CSSC[C@H](NC(=O)[C@@H](N)CCCCNC(=O)COCCOCCNC(=O)CC[C@H](NC(=O)CCCCCCCCCCCCCCCCCCC(=O)O)C(=O)O)C(=O)N[C@@H](CC(N)=O)C(=O)N[C@@H]([C@@H](C)O)C(=O)N[C@@H](C)C(=O)N[C@@H]([C@@H](C)O)C(=O)N1)[C@@H](C)O)C(=O)N1CCC[C@H]1C(=O)N[C@@H](CO)C(=O)N[C@@H](CO)C(=O)N[C@H](C(=O)N[C@@H](CC(N)=O)C(=O)N[C@H](C(=O)NCC(=O)N[C@@H](CO)C(=O)N[C@@H](CC(N)=O)C(=O)N[C@H](C(=O)N[C@@H](Cc1ccc(O)cc1)C(N)=O)[C@@H](C)O)C(C)C)[C@@H](C)O
notes: also called compound 41

In the assay the target is T1, human calcitonin receptor. The assay is described as follows: SPA competition against 125I-calcitonin, membranes with human calcitonin receptor (Assay VII). In outline: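 BHK hCTR membranes 35 ng/μL + SPA beads 0.05 mg/well; buffer 50 mM Hepes pH 7.4, 1 mM CaCl2, 5 mM MgCl₂, 0.1% OA, 0.02% Tween20. 120 min, 25° C., shaking. Scintillation count; IC50 by one-site binding competition.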
One may read the IC50 as the concentration that gives 50% inhibition. Take B1: the half-inhibitory concentration (IC50) turned out to be 19.9 nM.
As for B2, the figure is 2.64 nM; as for B3, 19.5 nM.
For the molecule B4, the IC50 came to 6.3 nM.
Regarding B5, the 50% inhibitory concentration (IC50) amounted to 4.87 nM.
As for B6, the figure is 102 nM; as for B7, 21.3 nM.
